Measured values: paper PMC6346094

Molecular target: Gβγ (bovine) (UniProt P62871)

Substance: His-tagged phosducin (from UniProt P19632 1-245) (natural protein)
- decrease of GIRK1* current (two-electrode voltage clamp, Xenopus oocytes coexpressing GIRK1* and Gβγ) 40-50 min after injection of purified His-phosducin to ~23 µM: 74%
